From patent publication EP4552657A1, “RADIOPHARMACEUTICAL COMPLEXES AND COMBINATIONS” (priority 2023, dated 2025)

What was measured:
[1] = test system: HepG2 and Hep3B2.1-7 cells; settings: 2 MBq/mg, 5 kBq/ml; 6 days; vs radiolabeled isotype control
Description: Cells were seeded at an appropriate cell density in relevant cell media. One day after seeding, the radiolabeled compounds at the specific activity of 2-20 kBq/µg and radioactive concentration of 50-100 kBq/ml were titrated in parallel with a radiolabeled isotype control. Cells were incubated for 5-6 days. Cell viability was determined by cell counting using Hoechst and PI staining and analyzed on Operetta CLS High Content Analysis System (Perkin Elmer) or by ATP measurements using CellTiterGlo (Promega).
HepG2 and Hep3B2.1-7 cells were seeded at an appropriate cell density in the cell media MEM + 10% FBS. HepG2 cells have higher GPC3 expression on the cell surface than Hep3B2.1-7 cells. One day after seeding the compounds at the specific activity of 2 MBq/mg and radioactive concentration of 5 kBq/ml were titrated in parallel with a radiolabeled isotype control. Cells were incubated for 6 days and subsequentially cell viability was determined using Hoechst and PI staining and analyzed on Operetta CLS High Content Analysis System (Perkin Elmer).

[2] = test system: Huh-7 hepatoma expressing GPC3; assay: In vivo efficacy in Huh-7 xenograft; design: species or system Mice
From the text: • Figure 1. […] Size-exclusion UV chromatogram of Codrituzumab-macropa. • Figure 9. […] Size-exclusion UV chromatogram of Labetuzumab-macropa. • Figure 18. […] Internalization of Labetuzumab. […] Size-exclusion UV chromatogram of Sacituzumab-macropa. • Figure 25. […] Size-exclusion UV chromatogram of Indusatumab-macropa. • Figure 30. […] Size-exclusion UV chromatogram of Telisotuzumab-macropa. • Figure 36.

[3] = test system: GPC3 low-expressing hepatoma xenograft model Huh-7; settings: 168h; 500 kBq/kg IV, 0,75 mg/kg total protein
Description: Female RJ: NRMI-Foxn1nu/nu mice were inoculated with 2 × 10^6 Huh-7 cells on the right flank. Animals were pre-treated with 200 µg/mouse unspecific IgG2a antibody 24 h prior to hot dosing.

CEACAM5 [4] = target: T1, CEACAM5 (Homo sapiens, UniProt P06731); assay: Immunoreactive fraction (IRF), binding to CEACAM5-coated beads; settings: 2 kBq/µg
T1 sequence (P06731 35-702): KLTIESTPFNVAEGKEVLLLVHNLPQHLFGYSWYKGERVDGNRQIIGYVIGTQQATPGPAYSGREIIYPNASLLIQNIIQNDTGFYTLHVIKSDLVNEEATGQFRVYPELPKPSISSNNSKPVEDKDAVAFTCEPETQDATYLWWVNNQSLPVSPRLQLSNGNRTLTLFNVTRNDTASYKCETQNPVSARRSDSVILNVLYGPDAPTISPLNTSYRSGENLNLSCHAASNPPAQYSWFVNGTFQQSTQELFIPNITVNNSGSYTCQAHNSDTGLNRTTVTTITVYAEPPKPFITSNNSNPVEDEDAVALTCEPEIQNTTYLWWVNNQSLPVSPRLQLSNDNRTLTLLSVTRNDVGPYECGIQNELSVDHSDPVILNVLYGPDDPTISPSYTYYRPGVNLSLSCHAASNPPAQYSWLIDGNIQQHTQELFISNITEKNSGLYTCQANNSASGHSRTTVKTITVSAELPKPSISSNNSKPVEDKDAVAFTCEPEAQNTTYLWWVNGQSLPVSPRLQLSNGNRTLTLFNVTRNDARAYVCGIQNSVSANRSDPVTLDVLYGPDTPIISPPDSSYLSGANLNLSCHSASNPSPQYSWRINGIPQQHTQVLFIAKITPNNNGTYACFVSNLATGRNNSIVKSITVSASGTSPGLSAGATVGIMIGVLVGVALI
Description: Shortly after completion of the radiolabeling, the binding was assessed by measuring the fraction of radiolabeled antibody-chelator conjugate bound to relevant antigen coated magnetic beads (Thermo Fisher Scientific). In short, beads were placed in 2 mL Eppendorf tubes in 90 µL buffer (PBS/0.1% Tween 20/1% BSA). The radiolabeled compounds were diluted to 5 Bq/µL in buffer and 50 Bq were added to each bead-containing tube. The binding lasted for 60 min while shaking at 750 rpm at room temperature. After completion of the binding step, magnet (DynaMag-2) was used to separate the beads from […] supernatant. The radio activities in the supernatant and in the beads of each sample were measured using a high purity Germanium detector (Ortec). […] Total binding was defined as [(activity in beads […])/ (total activity)] × 100.
Shortly after completion of the radiolabeling, the binding of each sample to CEACAM5-coated M270-carboxy Dynabeads was determined.

LK-2 lung cancer model = assay: In vivo antitumor efficacy in LK-2 model; design: species or system mice
From the text: Female BALB/c nude mice were inoculated subcutaneously with 1×10^6 LK-2 cells. When tumors reached an average size of ~190mm^3, animals were randomized into treatment groups (n=12 per group) and treatment was started.
(**, P=0.0024. ****, […]) (Figure 28).

[5] = test system: C4-2, JIMT-1, T-47D, NCI-N87 and Calu-3; settings: 2 to 40 kBq/µg; 6 days; vs isotype control
Description: In vitro cytotoxicity of Ac-225-ACC was determined in cell lines expressing different levels of relevant target receptors. Cells were seeded at an appropriate cell density in relevant cell media. One day after seeding, the radiolabeled compounds at the specific activity of 2-20 kBq/µg and radioactive concentration of 50-100 kBq/ml were titrated in parallel with a radiolabeled isotype control. Cells were incubated for 5-6 days. Cell viability was determined by cell counting using Hoechst and PI staining and analyzed on Operetta CLS High Content Analysis System (Perkin Elmer) or by ATP measurements using CellTiterGlo (Promega).
C4-2, JIMT-1, T-47D, NCI-N87 and Calu-3 were seeded at an appropriate cell density in the following cell media respectively: RPMI + 10% FBS + 1x MEM-NEAA + 1x HEPES + 1x Na Pyruvate; DMEM + 10% FBS; RPMI + 10% FBS + 10 µg/ml insulin; RPMI + 10% FBS; RPMI + 10% FBS. […] Cells were treated for 6 days and subsequentially cell viability was determined using CellTiterGlo (Promega).

human glypican-3 [6] = target: T2, human glypican-3 (Homo sapiens, UniProt P51654); assay: ELISA, binding to recombinant human glypican-3; settings: compared to unconjugated Codrituzumab
Description: The relevant antigen was immobilized on ELISA plate by absorption. The plate was washed (PBS with 0.1% Tween 20) and incubated with blocking buffer (PBS + 3% BSA) for 2 h ± 1 h to reduce unspecific binding. Relevant antibodies and ACCs diluted in assay buffer (PBS with 0.05% Tween 20 + 1.5% BSA). The blocking buffer was discarded, and the antibodies and ACCs and controls were applied in triplicates to the plate according to a plate set-up defined in each protocol. After incubation for 1 h ± 30 min at RT, the plate was washed. A horse radish peroxidase (HRP)-conjugated secondary antibody binding specifically to the primary mAb (anti-human IgG-HRP) was added to the plate. After incubation for 1 hour ± 30 min at RT, the plate was washed. A chromogenic substrate (2,2'-azino-bis (3-ethylbenzothiazoline-6-sulphonic acid) (ABTS)), for HRP leading to the formation of a green color was added to the plate and used for detection. The absorbance of the colored reaction product was measured with an absorbance plate reader, e.g. EnVision 2103 Multilabel Reader from Perkin Elmer, or iMark Microplate Absorbance Reader from Bio-Rad.
Absorbance against the log of the antibody concentration was plotted on the GraphPad Prism software. […]

human glypican-3 [7] = target: T2, human glypican-3; assay: Flow cytometry, cell surface binding on Hep3B2 cells; design: Hep3B2 cells expressing human glypican-3; endogenous in cells; host or cells: Hep3B2; settings: compared to unconjugated Codrituzumab
Description: (§1) The in vitro binding properties of antibody-chelator conjugates were assessed in various relevant cell lines and compared to their corresponding unconjugated antibody. Briefly, samples were diluted in buffer (PBS/3% FBS) and added to relevant cell lines. After completion of the binding step (60 min at 4°C), the cells were washed and incubated with secondary antibody conjugated with phycoerythrin to detect antibodies containing a human IgG Fc region. After 60 min at 4°C, the cells were washed, and fluorescence on the cells was determined by flow cytometry using Guava EasyCyte 8HT (Luminex).
Cell surface binding of Codrituzumab-macropa was compared to unconjugated Codrituzumab and was investigated by flow cytometry using Hep3B2 cells expressing human glypican-3 (Figure 11).

human FolRa = target: T3, human FolRa (Homo sapiens, UniProt P15328); assay: Flow cytometry, cell surface binding on OUMS-23 and T-47D cells; settings: compared to the unconjugated antibody
T3 construct: OUMS-23 and T-47D cells expressing human FolRa; endogenous in cells; host or cells: OUMS-23, T-47D
Description: as §1
Cell surface binding of Farletuzumab-macropa and Farletuzumab-DOTA was compared to unconjugated Farletuzumab and investigated by flow cytometry using OUMS-23 and T-47D cells expressing human FolRa (Figure 43).
Cell surface binding of Mirvetuximab-macropa and Mirvetuximab-DOTA was compared to unconjugated Mirvetuximab and investigated by flow cytometry using OUMS-23 and T-47D cells expressing human FolRa (Figure 47).

GUCY2C = GUCY2C (Homo sapiens, UniProt P25092); assay: Flow cytometry, cell surface binding on CHO-GUCY2C cells; design: expressed in transfected cells; host or cells: CHO; settings: compared to unconjugated Indusatumab
Description: as §1
Cell surface binding of Indusatumab-macropa was compared to unconjugated Indusatumab and investigated by flow cytometry using CHO-GUCY2C cells expressing human GUCY2C (Figure 31).

CEACAM5 [8] = target: T1, CEACAM5; assay: Flow cytometry, cell surface binding on MKN-45 and HT-55 cells; design: MKN-45 and HT-55 cells expressing human CEACAM5; endogenous in cells; host or cells: MKN-45, HT-55; settings: compared to unconjugated Labetuzumab
Description: as §1
Cell surface binding of Labetuzumab-macropa was compared to unconjugated Labetuzumab and investigated by flow cytometry using MKN-45 and HT-55 cells expressing human CEACAM5 (Figure 19).

[9] = Chelation of bismuth-213 by iTLC after Ac-225 labelling; format: physicochemical; settings: measured immediately and on Day 1 and Day 2 at room temperature
Description: In brief, an iTLC paper impregnated with a silica gel plate was cut to obtain 11 cm × 1 cm strips. Application point (1 cm), cut point (4 cm) and end of run point (10 cm) was marked and 2 µl of TAC was applied on to iTLC strips. The strips were developed in 3 mL mobile phase (0.1 M Citrate in 0.9%(v/v) NaCl pH 5.5) in LSC vials. […] When the liquid front had reached the marked end point, the strips were removed from the vials and placed on an aluminum foil to dry. The strips were cut in two at 4 cm: the shorter "application" half (A) and the longer "front" half (F). Each part was carefully folded and placed at the bottom of scintillation vials. […] The radiochemical purity (% RCP) of the samples (defined as [(radioactivity of application section)/(total radioactivity on strip)] × 100) was calculated. Table 2: Radiochemical purity (% RCP) of samples included in this invention.
Pelgi-macropa labeling was performed for 60 min at room temperature the two DOTA compounds were labeled at 60°C for 60 min. The percentage chelation of Bi-213 was determined using iTLC and measured on the Germanium Detector using the specific energy of Bi-213. After initial radiolabelling, compounds were measured immediately and on Day 1 and Day 2 after incubation at room temperature. […]

human TROP2 = target: T4, human TROP2 (Homo sapiens, UniProt P09758); assay: Flow cytometry, cell surface binding on JIMT-1, MCF-7, T-47D and ZR-75-1 cells; settings: compared to unconjugated Sacituzumab
T4 construct: JIMT-1, MCF-7, T-47D and ZR-75-1 cells expressing human TROP2; endogenous in cells; host or cells: JIMT-1, MCF-7, T-47D, ZR-75-1
T4 sequence (P09758 27-323): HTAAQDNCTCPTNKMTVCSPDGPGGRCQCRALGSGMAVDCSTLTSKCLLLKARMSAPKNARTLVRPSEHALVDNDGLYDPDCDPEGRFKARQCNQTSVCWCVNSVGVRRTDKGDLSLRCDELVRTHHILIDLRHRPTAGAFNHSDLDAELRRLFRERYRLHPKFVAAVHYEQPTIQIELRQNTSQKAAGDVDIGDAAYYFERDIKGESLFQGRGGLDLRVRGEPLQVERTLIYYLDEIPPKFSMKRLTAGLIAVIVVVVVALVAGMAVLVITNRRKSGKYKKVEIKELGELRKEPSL
Description: as §1

T3 sequence (P15328 25-257): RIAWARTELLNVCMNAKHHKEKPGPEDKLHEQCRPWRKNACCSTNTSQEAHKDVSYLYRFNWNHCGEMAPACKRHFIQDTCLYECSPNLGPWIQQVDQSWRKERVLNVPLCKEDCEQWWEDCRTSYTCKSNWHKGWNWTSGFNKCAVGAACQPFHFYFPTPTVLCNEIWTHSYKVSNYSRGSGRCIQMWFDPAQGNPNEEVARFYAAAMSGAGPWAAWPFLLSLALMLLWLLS

Substance: Ac-225-macropa-Codrituzumab: Ac-225 macropa complex bound to the anti-GPC3 monoclonal antibody Codrituzumab
- cytotoxicity [1]: strong and specific cytotoxicity
- anti-tumor activity ([2]; 500 kBq/kg single dose IV, repeat dose 250 kBq/kg on day 25, compared to isotype control): significantly higher anti-tumor activity
- body weight loss ([2]; during the course of the study): No body weight loss
- tumor uptake [3]: significantly higher tumor uptake at 168h compared to Ac-225-macropa-isotype-control

Substance: Ac-225-macropa-Labetuzumab
- IRF (CEACAM5 [4]; 33 µg beads): 43%
- IRF (CEACAM5 [4]; 100 µg beads): 88%
- IRF (CEACAM5 [4]; 333 µg beads): 97%

Substance: Ac-225-macropa-Sacituzumab: Ac-225 macropa complex bound to the anti-TROP2 monoclonal antibody Sacituzumab
- tumor growth inhibition (LK-2 lung cancer model; 100 or 200 kBq/kg, i.v., single dose day 0): strong tumor growth inhibition at both doses tested
- Antitumor activity compared to Trodelvy (LK-2 lung cancer model; Trodelvy 20 mg/kg i.v. day 0,7,14): significantly improved as compared to Trodelvy
- cytotoxicity [5]: strong and specific cytotoxicity

Substance: Codrituzumab-DOTA
- EC50 (human glypican-3 [6]): higher EC50 than unconjugated Codrituzumab

Substance: Codrituzumab-macropa
- EC50 (human glypican-3 [7]): comparable EC50 as unconjugated Codrituzumab

Substance: Farletuzumab-DOTA [reference compound]
- EC50 (human FolRa): higher EC50 than unconjugated Farletuzumab in both cell lines

Substance: Farletuzumab-macropa
- EC50 (human FolRa): comparable EC50 in both cell lines as unconjugated Farletuzumab

Substance: Indusatumab-macropa
- EC50 (GUCY2C): comparable EC50 as unconjugated Indusatumab

Substance: Labetuzumab-macropa
- EC50 (CEACAM5 [8]): comparable EC50 as unconjugated Labetuzumab

Substance: Mirvetuximab-DOTA [reference compound]
- EC50 (human FolRa): higher EC50 than unconjugated Mirvetuximab in OUMS-23 cells

Substance: Mirvetuximab-macropa
- EC50 (human FolRa): comparable EC50 in both cell lines as unconjugated Mirvetuximab

Substance: Pelgi-macropa: actinium-225 complexed to a macropa chelator covalently linked to the fully human PSMA-targeting antibody pelgifatamab (CAR 0.8)
- chelation of Bismuth-213 [9]: chelated by macropa

Substance: Sacituzumab-macropa
- EC50 (human TROP2): comparable EC50 as unconjugated Sacituzumab

Substance: pelgifatamab-DOTA: pelgifatamab-DOTA (CAR 12.7) labeled with Actinium-225
- chelation of Bismuth-213 [9]: not chelated to the same extent with DOTA
